Data as given in publication doi:10.1101/2021.02.27.433148.
Where two headings read alike, the source gives them in different places.

Tests used:
[1] = molecular target: human norovirus GII.4 Saga P-domain (native, Asn373) (human norovirus GII.4 Saga); experiment: native MS
[2] = molecular target: human norovirus GII.4 Saga P-domain, fully deamidated at position 373 (iso-aspartate) (human norovirus GII.4 Saga)
[3] = molecular target: murine norovirus (MNV) CR10 P-domain (murine norovirus, strain CR10) (UniProt Q80J94); experiment: native MS
Q80J94 = experiment: SEC
[4] = molecular target: murine norovirus (MNV) CW1 P-domain (murine norovirus, strain CW1) (UniProt Q80J94); experiment: NMR titration
[5] = molecular target: murine norovirus (MNV) CW1 P-domain (murine norovirus, strain CW1) (UniProt Q80J94); experiment: SEC
[6] = molecular target: murine norovirus (MNV) CW1 P-domain (murine norovirus, strain CW1) (UniProt Q80J94); experiment: NMR titration; remark: listed apart in the source
[7] = molecular target: murine norovirus (MNV) CW1 P-domain (murine norovirus, strain CW1) (UniProt Q80J94); experiment: SEC; remark: listed apart in the source

Substance “human norovirus GII.4 Saga P-domain (native, Asn373) (domain or fragment)” has a stoichiometry N [1] of 2.
For “human norovirus GII.4 Saga P-domain point mutant N373Q (domain or fragment)”, the koff [2] was 1.5e-06 s⁻¹.
“murine norovirus (MNV) CR10 P-domain (from UniProt Q80J94 229-531) (domain or fragment)” gave a Kd [3] of 32 µM and a stoichiometry N [3] of 2.
murine norovirus (MNV) CW1 P-domain was tested, and the “kex (printed as dissociation rate constant kex, from SEC peak tailing)” value (Q80J94) was 0.03 s⁻¹.
“murine norovirus (MNV) CW1 P-domain (from UniProt Q80J94 225-541) (domain or fragment)” was tested, and the Kd [4] was 12.5 µM, the koff [4] was 0.035 s⁻¹ and the kon [4] was 2800 M⁻¹ s⁻¹. For the same substance, the stoichiometry N [5] was 2, the Kd [6] was 31 µM and the dimer half-life t1/2 [6] was 17 s. For the same substance, the Kd [7] was 40 µM and the stoichiometry N [7] was 2.
